# Data: article PMC3433420
# Where “and” joins values, the source holds several entries; their conditions need not be identical. Equal values may be shown once.
# Assays:
# Assay in all cases: peptide or protein array; SH2/PTB proteins spotted on aldehyde slides, rhodamine peptide titrated in buffer B (20 mM HEPES, 100 mM KCl, 0.1% Tween-20, 5 mM DTT, pH 7.8), 1 h at room temperature; replicate assays
# [1] = biological target: PTPN11 tandem SH2 domains (human)
# [2] = biological target: SH2D3A SH2 domain (human) (UniProt Q9BRG2)
# Chain of SH2D3A SH2 domain (human) (Q9BRG2 15-114): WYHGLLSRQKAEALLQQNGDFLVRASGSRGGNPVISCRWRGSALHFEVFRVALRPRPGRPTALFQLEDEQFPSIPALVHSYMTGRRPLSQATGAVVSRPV
# TNS3 SH2 domain (human) = TNS3 SH2 domain (human) (UniProt Q68CZ2)
# Chain of TNS3 SH2 domain (human) (Q68CZ2 1172-1282): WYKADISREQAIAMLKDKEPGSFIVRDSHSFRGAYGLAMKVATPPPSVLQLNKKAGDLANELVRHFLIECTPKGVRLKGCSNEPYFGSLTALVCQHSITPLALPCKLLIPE
# [3] = biological target: SYK C-terminal SH2 domain (human)
# GRAP2 SH2 domain (human) = GRAP2 SH2 domain (human) (UniProt O75791)
# Chain of GRAP2 SH2 domain (human) (O75791 58-149): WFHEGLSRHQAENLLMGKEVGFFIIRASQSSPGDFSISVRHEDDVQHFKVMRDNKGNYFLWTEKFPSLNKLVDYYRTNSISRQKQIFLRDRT
# GRB7 SH2 domain (human) = GRB7 SH2 domain (human) (UniProt Q14451)
# Chain of GRB7 SH2 domain (human) (Q14451 431-527): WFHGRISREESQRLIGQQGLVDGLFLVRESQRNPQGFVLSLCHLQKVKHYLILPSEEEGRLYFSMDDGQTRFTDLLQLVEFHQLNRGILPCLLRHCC
# GRB10 SH2 domain (human) = GRB10 SH2 domain (human) (UniProt Q13322)
# Chain of GRB10 SH2 domain (human) (Q13322 493-574): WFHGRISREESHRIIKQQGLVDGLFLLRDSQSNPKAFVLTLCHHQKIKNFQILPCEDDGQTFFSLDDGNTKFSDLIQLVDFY
# BCAR3 SH2 domain (human) = BCAR3 SH2 domain (human) (UniProt O75815)
# Chain of BCAR3 SH2 domain (human) (O75815 154-253): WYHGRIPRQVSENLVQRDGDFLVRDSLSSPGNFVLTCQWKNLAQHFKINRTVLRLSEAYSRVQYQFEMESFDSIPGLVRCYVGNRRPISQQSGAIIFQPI
# [4] = biological target: SH2D1B SH2 domain (human) (UniProt O14796)
# Chain of SH2D1B SH2 domain (human) (O14796 5-101): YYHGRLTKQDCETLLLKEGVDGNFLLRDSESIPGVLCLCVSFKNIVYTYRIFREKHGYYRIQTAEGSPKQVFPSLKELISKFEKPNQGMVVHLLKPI
# FGR SH2 domain (human) = FGR SH2 domain (human) (UniProt P09769)
# BLK SH2 domain (human) = BLK SH2 domain (human) (UniProt P51451)
# Chain of BLK SH2 domain (human) (P51451 124-220): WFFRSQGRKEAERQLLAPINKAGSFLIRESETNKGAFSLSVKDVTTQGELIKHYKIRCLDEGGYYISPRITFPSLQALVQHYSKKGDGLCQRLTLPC
# [5] = biological target: ZAP70 C-terminal SH2 domain (human) (UniProt P43403)
# Chain of ZAP70 C-terminal SH2 domain (human) (P43403 whole entry, the tested form may be a part): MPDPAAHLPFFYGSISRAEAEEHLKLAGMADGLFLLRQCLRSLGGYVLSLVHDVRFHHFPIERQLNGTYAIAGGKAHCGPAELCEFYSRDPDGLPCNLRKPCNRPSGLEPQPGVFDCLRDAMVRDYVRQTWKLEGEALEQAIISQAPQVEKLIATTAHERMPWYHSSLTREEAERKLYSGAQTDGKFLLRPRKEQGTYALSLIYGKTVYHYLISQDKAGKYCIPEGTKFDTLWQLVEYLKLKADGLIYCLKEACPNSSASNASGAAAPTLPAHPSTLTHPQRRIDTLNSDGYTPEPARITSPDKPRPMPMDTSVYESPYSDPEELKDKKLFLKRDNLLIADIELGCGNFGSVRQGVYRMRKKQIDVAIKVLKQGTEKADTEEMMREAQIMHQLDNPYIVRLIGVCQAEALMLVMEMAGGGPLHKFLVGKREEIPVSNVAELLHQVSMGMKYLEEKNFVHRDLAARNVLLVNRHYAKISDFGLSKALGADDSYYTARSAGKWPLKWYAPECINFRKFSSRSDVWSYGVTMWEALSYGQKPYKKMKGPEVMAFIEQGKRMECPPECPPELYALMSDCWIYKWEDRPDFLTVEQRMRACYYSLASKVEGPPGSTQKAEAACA
# YES1 SH2 domain (human) = YES1 SH2 domain (human) (UniProt P07947)
# Chain of YES1 SH2 domain (human) (P07947 158-255): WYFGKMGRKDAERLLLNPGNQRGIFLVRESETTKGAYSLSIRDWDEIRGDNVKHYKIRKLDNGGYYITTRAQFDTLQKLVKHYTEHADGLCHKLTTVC
# LCK SH2 domain (human) = LCK SH2 domain (human) (UniProt P06239)
# Chain of LCK SH2 domain (human) (P06239 127-224): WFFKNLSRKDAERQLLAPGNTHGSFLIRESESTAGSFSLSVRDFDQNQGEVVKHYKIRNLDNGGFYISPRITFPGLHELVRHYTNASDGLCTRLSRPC
# [6] = biological target: SH2D3C SH2 domain (human) (UniProt Q8N5H7)
# Chain of SH2D3C SH2 domain (human) (Q8N5H7 220-319): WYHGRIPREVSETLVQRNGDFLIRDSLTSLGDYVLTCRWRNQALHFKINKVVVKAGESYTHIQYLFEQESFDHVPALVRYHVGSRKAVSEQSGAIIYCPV
# NCK1 SH2 domain (human) = NCK1 SH2 domain (human) (UniProt P16333)
# [7] = biological target: SH3BP2 SH2 domain (human) (UniProt P78314)
# Chain of SH3BP2 SH2 domain (human) (P78314 457-555): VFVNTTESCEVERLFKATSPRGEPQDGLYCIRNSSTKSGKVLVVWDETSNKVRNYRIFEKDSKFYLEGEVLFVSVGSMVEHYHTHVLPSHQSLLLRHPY
# HCK SH2 domain (human) = HCK SH2 domain (human) (UniProt P08631)
# Chain of HCK SH2 domain (human) (P08631 144-241): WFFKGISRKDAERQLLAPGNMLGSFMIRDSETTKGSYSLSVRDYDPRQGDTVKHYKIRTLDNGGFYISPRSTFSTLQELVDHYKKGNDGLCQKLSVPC
# TEC SH2 domain (human) = TEC SH2 domain (human) (UniProt P42680)
# Chain of TEC SH2 domain (human) (P42680 247-345): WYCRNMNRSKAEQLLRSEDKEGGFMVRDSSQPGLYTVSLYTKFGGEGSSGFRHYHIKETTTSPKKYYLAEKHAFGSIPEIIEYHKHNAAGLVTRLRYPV
substance,measurement,setting,value
"ErbB4 pY1262 phosphopeptide, rhodamine-labelled, for protein microarrays",Kd,[1],536 nM
same,Kd,[2],177 nM and 402 nM
same,Kd,TNS3 SH2 domain (human),373 nM and 742 nM
same,Kd,[3],408 nM
same,Kd,GRAP2 SH2 domain (human),808 nM and 1360 nM
same,Kd,GRB7 SH2 domain (human),341 nM
same,Kd,GRB10 SH2 domain (human),1500 nM
same,Kd,BCAR3 SH2 domain (human),610 nM and 1170 nM
same,Kd,[4],612 nM
same,Kd,FGR SH2 domain (human),201 nM and 401 nM
same,Kd,BLK SH2 domain (human),170 nM and 540 nM
same,Kd,[5],588 nM
same,Kd,YES1 SH2 domain (human),111 nM and 329 nM
same,Kd,LCK SH2 domain (human),214 nM and 375 nM
same,Kd,[6],1440 nM and 1160 nM
same,Kd,NCK1 SH2 domain (human),574 nM and 643 nM
same,Kd,[7],403 nM and 1470 nM
same,Kd,HCK SH2 domain (human),827 nM
same,Kd,TEC SH2 domain (human),407 nM and 1190 nM
